Results as given in US12102661B2.

Target: Angioensin Converting Enzyme (ACE)

| Inhibitory activity of hydrolysate (%) | Substance |
| --- | --- |
| 87.4 | AS1.398 neutral protease hydrolysate of ginkgo protein (pool or library) |
| 80.4 | Alcalase hydrolysate of ginkgo protein (pool or library) |
| 73.2 | papain hydrolysate of ginkgo protein (pool or library) |
| 61.3 | trypsin hydrolysate of ginkgo protein (pool or library) |

Target: Angioensin Converting Enzyme (ACE)
Remark: another data set of the same source

| ACE inhibitory activity (%) | Substance |
| --- | --- |
| 56.2 | Over 10 kDa concentrated solution of ginkgo protein hydrolysate (pool or library) |
| 85.3 | Ultrafiltrate below 3 kDa of ginkgo protein hydrolysate (pool or library) |
| 72 | Ultrafiltrate of 3-10 kDa of ginkgo protein hydrolysate (pool or library) |
